# According to US11560566B2, “Aptazyme-embedded guide RNAs for use with CRISPR-Cas9 in genome editing and transcriptional activation” (President and Fellows of Harvard College, priority 2017, dated 2023):
# Assays:
# [1] = system: GFP gene (modified promoter) in HEK293T cells; test: Transcriptional activation of GFP reporter with dCas9-VPR in HEK293T cells; format: cell-based, human
# Source text: In addition to genome editing, transcriptional regulation is another widely used application of CRISPR-Cas9^4. To further explore the utility of agRNAs, we sought to develop an agRNA that responds to a different small-molecule ligand and activates the expression of a guide RNA-specified target gene, rather than editing a target gene through DNA cleavage. A previously reported guanine-aptazyme^24 that contains a naturally occurring guanine aptamer^25 was incorporated into the guide RNA and the resulting guanine-agRNA was tested for its ability to activate transcription of a GFP gene in HEK293T cells (FIG. 3c). […] In the presence of an active guide RNA, dCas9-VPR initiates transcription of GFP, ultimately resulting in cell fluorescence.
# (§1) To each well in a 48-well plate, 200 ng of dCas9-VPR plasmid, 0.5 ng of guide RNA plasmid and 60 ng of reporter plasmid were transfected using 1.2 μL Lipofectamine 2000. […] Cells were harvested 20 h after transfection.
# FANCF site = test: Theophylline-dependent base editing (BE3), FANCF site; format: cell-based, human; details: ligand concentration 4 mM
# Source text: Cells were harvested 3 days after transfection.
# [2] = system: target dsDNA (full GFP gene); test: In vitro DNA cleavage assay (Cas9 + guide RNA); format: biochemical; details: 10 nM target DNA, 100 nM guide RNA, 100 nM Cas9, 37° C.; for target DNA cleavage followed by gel electrophoresis: 1 h for sgRNA variants, 5 h for crRNA and tracrRNA variants
# Protocol: The blocker-linked guide RNAs were prepared by in vitro transcription and incubated in vitro with Cas9 protein and a target dsDNA. Target DNA cleavage was followed by gel electrophoresis (FIG. 1b).
# SpCas9 protein was purified as previously described^1,35. Guide RNAs were transcribed using a T7 High Yield RNA Synthesis Kit (NEB) following the manufacturer's protocol, and purified with the E.Z.N.A. PF miRNA Isolation Kit (Omega Bio-tek, Inc.). The target dsDNA (full GFP gene) was amplified by polymerase chain reaction and purified using QlAquick PCR Purification Kit (QIAGEN). For the cleavage reaction, 10 nM of the target DNA was incubated with 100 nM of the guide RNA in the presence of 100 nM Cas9 protein in a Cas9 DNA cleavage buffer (150 mM KCl, 10 mM MgCl2, 0.5 mM DTT, 0.1 mM EDTA, 20 mM HEPES pH 7.5). In vitro editing reactions were incubated at 37° C. for 1 h for sgRNA and its variants and the reactions for crRNA and tracrRNA and their variants were incubated at 37° C. for 5 h before being stopped with 6×DNA loading buffer and analyzed by non-denaturing agarose gel electrophoresis.
# [3] = system: endogenous GFP locus in HEK293-GFP cells
# Source text: To compare the activities of the guide RNAs with the blocking region either present or removed, a non-cleaving “dead” variant of HHR-bsgRNA (dHHR-bsgRNA) containing a single A to G point mutation in the catalytic loop of the hammerhead ribozyme was produced. To optimize the restoration of guide RNA activity by self-cleavage of the hammerhead ribozyme, the length of the blocking sequence was varied. Three sets of HHR-bsgRNAs and dHHR-bsgRNAs with blocking sequences of 10 to 17 nucleotides were constructed. The genome editing activities of these sgRNA variants in the presence of Cas9 in human embryonic kidney cells harboring genomic GFP genes (HEK293-GFP) were assayed by targeting the endogenous GFP locus (FIG. 2a).
# HEK293 cells with integrated GFP genes (GenTarget Inc.) were cultured in 48-well plates (40,000 cells seeded per well) in Dulbecco's Modified Eagle's Media plus GlutaMAX (DMEM, Life Technologies) with 10% FBS. Plasmids were transfected ˜20 h after plating when cells reached ˜70% confluence. To edit the GFP genes in HEK293 cells, 100 ng of Cas9 plasmid and 2 ng of guide RNA plasmid were transfected in each well using 1.2 μL Lipofectamine 2000 (Life Technologies) following the manufacturer's protocol. To distinguish transfected cells from non-transfected cells, 2 ng of an iRFP expression plasmid was co-transfected. A stock solution of 100 mM theophylline was made in 60 mM NaOH and was supplied to cells 6 h after plasmid transfection at designed concentrations. The cells were incubated for additional 7 days before analysis and media was changed at day 3, 5 and 6. Fresh theophylline was supplied immediately at the same concentration as in the initial condition each time the media was changed. GFP fluorescence was quantified by flow cytometry and the transfected live population was gated by iRFP signal.
# [4] = system: RFP reporter in HEK293T cells; test: Transcriptional activation of RFP reporter with dCas9-VPR in HEK293T cells; format: cell-based, human; details: different spacer sequence
# Protocol: To further generalize this strategy, we tested the guanine-agRNA with three bulges for RFP activation in HEK293T cells with a different spacer sequence that is unrelated to the spacer used to target GFP.
# as §1
molecule,measurement,setting,value
"Nc1nc2nc[nH]c2c(=O)[nH]1 [guanine, reference compound]",effect of guanine on GFP fluorescence,"[1]; guanine in the medium from 0 to 200 μM, cells with (d) guanine-agRNA",slightly reduced GFP fluorescence
Cn1c(=O)[nH]c(=O)c2[nH]cnc21 [3-methylxanthine],"response of theophylline-agRNA-mediated base editing to ligand, fold less strongly than to theophylline",FANCF site,2 fold
guanine-agRNA: guanine-aptazyme-embedded guide RNA for GFP activation (nucleic acid) guide: GCAAGCUGCCCGUGCCCGGUACAUCCAGCUGAUGAGUCCCAAAUAGGACGAAAUACUAUAAUCGCGUGGAUAUGGCACGCAAGUUUCUACCGGGCACCGUAAAUGUCCGACUAGUGUCCUGGAUUCCACGGGCACGGGCAGCUUGCCGGGUUUUAGAGCUAGAAAUAGCAAGUUAAAAUAAGGCUAGUCCGUUAUCAACUUGAAAAAGUGGCACCGAGUCGGUGCUUUUUUU,off-state activity (GFP fluorescence),"[1]; absence of guanine, compared to control cells lacking any guide RNA",elevated GFP fluorescence
same,activation of GFP fluorescence,[1]; guanine added to media at 50 μM,5 fold
(d) guanine-agRNA: non-splicing mutant of guanine-agRNA (nucleic acid) GCAAGCUGCCCGUGCCCGGUACAUCCAGCUGAUGAGUCCCAAAUAGGACGAGAUACUAUAAUCGCGUGGAUAUGGCACGCAAGUUUCUACCGGGCACCGUAAAUGUCCGACUAGUGUCCUGGAUUCCACGGGCACGGGCAGCUUGCCGGGUUUUAGAGCUAGAAAUAGCAAGUUAAAAUAAGGCUAGUCCGUUAUCAACUUGAAAAAGUGGCACCGAGUCGGUGCUUUUUUU,GFP activation by guanine,"[1]; guanine 50 μM (dHHR-bsgRNA) or different concentrations ((d) guanine-agRNA), dCas9-VPR",only a low level of GFP expression that could no longer be activated by guanine
5′ spacer-blocked sgRNA: sgRNA with 42-nucleotide linker and 6-nucleotide blocking sequence complementary to the spacer at the 5′ end (nucleic acid) guide: GGUGCCCGUAGUAGUAGUAGCAACCACGUCGCGUCCGUAGUAGUAGUAGGGCACGGGCAGCUUGCCGGGUUUUAGAGCUAGAAAUAGCAAGUUAAAAUAAGGCUAGUCCGUUAUCAACUUGAAAAAGUGGCACCGAGUCGGUGCUUUUUUU,target DNA cleavage followed by gel electrophoresis,[2],no cleavage product could be detected
"blocked crRNA: crRNA with 42-nucleotide linker and 10-nucleotide blocking sequence appended to the 3′ end (nucleic acid, unmodified RNA) guide: GGGCACGGGCAGCUUGCCGGGUUUUAGAGCUAUGCUGUUUUGGAUGGCAACCACGUCGCGUCCUGUAGUAGUAUGAUAGCUCUAA",target DNA cleavage followed by gel electrophoresis,[2],partial cleavage of the target DNA
"post-cleavage sgRNA: processed HHR-bsgRNA without the blocking sequence, 11 extra nucleotides at the 5′ end (nucleic acid, chemistry not given here) guide: GCUGGAUUCCACGGGCACGGGCAGCUUGCCGGGUUUUAGAGCUAGAAAUAGCAAGUUAAAAUAAGGCUAGUCCGUUAUCAACUUGAAAAAGUGGCACCGAGUCGGUGCUUUUUUU",activity compared to the unmodified guide RNA,"[3]; HEK293-GFP cells, Cas9, sgRNA with 11 extra nucleotides at the 5′ end",maintained most of its activity
guanine-agRNA with three bulges: guanine-agRNA with bulged blocker and a different spacer for RFP activation (nucleic acid) guide: ACUGCGGGAUGGAGGAGACGGUACAUCCAGCUGAUGAGUCCCAAAUAGGACGAAAUACUAUAAUCGCGUGGAUAUGGCACGCAAGUUUCUACCGGGCACCGUAAAUGUCCGACUAGUGUCCUGGAUUCCACGUCCCCUCCACCCCACAGUGGUUUUAGAGCUAGAAAUAGCAAGUUAAAAUAAGGCUAGUCCGUUAUCAACUUGAAAAAGUGGCACCGAGUCGGUGCUUUUUUU,guanine-dependent RFP activation ratio,[4],~3 fold
"blocked tracrRNA: tracrRNA with 42-nucleotide linker and 10-nucleotide blocking sequence appended to the 5′ end (nucleic acid, unmodified RNA) GGAUUUUAACUUUAGUAGUAGUAGGCAACCACGUCGCGUCCUAGUAGGCAUAGCAAGUUAAAAUAAGGCUAGUCCGUUAUCAACUUGAAAAAGUGGCACCGAGUCGGUGCUUUUUUU",target DNA cleavage followed by gel electrophoresis,[2],partial cleavage of the target DNA
"canonical sgRNA: canonical Streptococcus pyogenes single guide RNA targeting GFP, positive control (nucleic acid, chemistry not given here, canonical Streptococcus pyogenes single guide RNA targeting GFP, positive control) guide: GGGCACGGGCAGCUUGCCGGGUUUUAGAGCUAGAAAUAGCAAGUUAAAAUAAGGCUAGUCCGUUAUCAACUUGAAAAAGUGGCACCGAGUCGGUGCUUUUUUU",activity relative to that of the activated agRNA,"[3]; loss beyond the off-state, 62% vs 48%",1.3 fold
same,loss beyond the off-state,[3]; wild-type Cas9,62%
same,GFP loss,"[3]; wild-type Cas9, canonical guide, positive control",72%
same,cleavage efficiency,[2]; 1 h,~100%
